Measurements as given in patent publication US20170202915A1 (TUFTS UNIVERSITY, published 2017).
One block for each binder: values may come before it.

What was measured:
recombinant galectin-3 = biological target: T1, recombinant galectin-3 (UniProt P17931 2-250); assay: galectin-agarose pulldown from LEC lysates, anti-PDPN western blot (FIG. 7A)
T1 construct: also called Gal-3
Protocol: Bound proteins were examined and were compared to total cell lysates (input) by western blot using anti-PDPN. […] Primary LECs were transfected with control (mock) or two siRNA that targeted different regions of PDPN. Knockdown efficiency was assessed by western blot using anti-PDPN and anti-β-actin antibodies. […] Primary LECs were transfected with control or PDPN siRNA. […] Data are plotted as mean±SEM and analyzed using Student's t test (FIG. 7C and FIG. 7F). *P<0.05, ***P<0.001 vs corresponding control.
Bound proteins were examined with total cell lysates (input) by western blot using an anti-PDPN antibody.

VEGFR-1 = biological target: T2, VEGFR-1 (UniProt P17948 27-1338, limits assumed); assay: galectin-agarose pulldown from primary LECs, western blot (FIG. 21A)
T2 construct: whole, on cells
T2 sequence (P17948 27-1338 limits assumed): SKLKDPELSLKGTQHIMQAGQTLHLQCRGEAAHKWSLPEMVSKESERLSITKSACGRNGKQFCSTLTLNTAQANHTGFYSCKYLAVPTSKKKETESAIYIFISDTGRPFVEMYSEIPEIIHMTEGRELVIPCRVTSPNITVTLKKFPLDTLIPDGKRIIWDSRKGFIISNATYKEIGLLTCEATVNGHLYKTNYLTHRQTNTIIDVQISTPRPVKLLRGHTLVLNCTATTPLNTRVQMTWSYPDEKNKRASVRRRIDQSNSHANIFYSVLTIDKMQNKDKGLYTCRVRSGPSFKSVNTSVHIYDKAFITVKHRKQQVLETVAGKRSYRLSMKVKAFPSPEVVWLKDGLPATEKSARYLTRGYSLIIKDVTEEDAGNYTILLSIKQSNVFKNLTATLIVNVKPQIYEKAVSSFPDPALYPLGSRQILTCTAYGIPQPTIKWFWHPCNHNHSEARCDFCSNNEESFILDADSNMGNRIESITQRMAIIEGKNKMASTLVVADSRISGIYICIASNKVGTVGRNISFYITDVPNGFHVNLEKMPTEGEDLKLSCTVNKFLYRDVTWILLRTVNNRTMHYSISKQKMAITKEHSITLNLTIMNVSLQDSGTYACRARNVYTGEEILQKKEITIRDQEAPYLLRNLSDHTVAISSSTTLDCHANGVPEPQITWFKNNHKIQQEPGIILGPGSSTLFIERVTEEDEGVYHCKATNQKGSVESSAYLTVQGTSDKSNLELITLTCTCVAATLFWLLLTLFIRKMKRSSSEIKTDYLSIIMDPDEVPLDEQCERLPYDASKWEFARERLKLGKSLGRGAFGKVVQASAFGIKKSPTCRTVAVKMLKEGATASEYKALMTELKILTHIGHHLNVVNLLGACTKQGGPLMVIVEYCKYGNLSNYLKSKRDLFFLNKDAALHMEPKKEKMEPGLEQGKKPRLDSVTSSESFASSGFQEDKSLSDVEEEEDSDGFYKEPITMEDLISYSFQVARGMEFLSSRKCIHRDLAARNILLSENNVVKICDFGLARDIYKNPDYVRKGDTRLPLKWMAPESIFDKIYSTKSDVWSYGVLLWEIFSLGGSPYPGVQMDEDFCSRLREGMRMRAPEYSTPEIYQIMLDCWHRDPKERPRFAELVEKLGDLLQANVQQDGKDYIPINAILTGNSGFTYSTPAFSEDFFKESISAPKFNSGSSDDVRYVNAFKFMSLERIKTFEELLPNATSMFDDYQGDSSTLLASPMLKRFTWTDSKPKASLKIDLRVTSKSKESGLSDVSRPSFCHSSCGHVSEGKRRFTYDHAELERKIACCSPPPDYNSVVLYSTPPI
Protocol: Primary LECs were incubated with agarose beads (control), and galectin-conjugated agarose beads at 4° C. overnight. Unbound proteins were removed and the bound proteins were eluted with 20 μL of 2× Laemmli sample buffer and analyzed and compared to control input by western blotting. […] LEC lysates incubated with unconjugated beads served as a negative control.

T1 sequence (P17931 2-250 limits assumed): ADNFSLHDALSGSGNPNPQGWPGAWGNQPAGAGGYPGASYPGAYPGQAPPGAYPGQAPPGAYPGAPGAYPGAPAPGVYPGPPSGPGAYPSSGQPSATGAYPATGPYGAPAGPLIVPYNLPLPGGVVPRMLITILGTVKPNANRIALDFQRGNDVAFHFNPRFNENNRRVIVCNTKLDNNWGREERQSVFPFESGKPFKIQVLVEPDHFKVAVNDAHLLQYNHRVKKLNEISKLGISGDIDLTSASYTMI

binding result (recombinant galectin-3): no binding
B1: podoplanin (receptor, human, UniProt Q86YL7 23-162, looked up)
chain: ASTGQPEDDTETTGLEGGVAMPGAEDDVVTPGTSEDRYKSGLTTLVATSVNSVTGIRIEDLPTSESTVHAQEQSPSATASNVATSHSTEKVDGDTQTTVEKDGLSTVTLVGIIVGVLLAIGFIGAIIVVVMRKMSGRYSP
modifications: O-glycosylated with alpha2,3-sialyl glycans
notes: whole, on cells; Endogenous protein from LEC lysates in the pulldowns and co-immunoprecipitation; also called PDPN

binding result (VEGFR-1): no binding
B2: recombinant full-length galectin-8 (other, UniProt O00214 1-317, looked up)
chain: MMLSLNNLQNIIYNPVIPFVGTIPDQLDPGTLIVIRGHVPSDADRFQVDLQNGSSMKPRADVAFHFNPRFKRAGCIVCNTLINEKWGREEITYDTPFKREKSFEIVIMVLKDKFQVAVNGKHTLLYGHRIGPEKIDTLGIYGKVNIHSIGFSFSSDLQSTQASSLELTEISRENVPKSGTPQLRLPFAARLNTPMGPGRTVVVKGEVNANAKSFNVDLLAGKSKDIALHLNPRLNIKAFVRNSFLQESWGEEERNITSFPFSPGMYFEMIIYCDVREFKVAVNGVHSLEYKHRFKELSSIDTLEINGDIHLLEVRSW
notes: mature; Tandem-repeat lectin with an N-CRD and a C-CRD; also called Gal-8; exogenous Gal-8
